Reference: article PMC2742391 (Protein Engineering, Design and Selection, 2009)

B1: recombinant wild-type fasciculin-2 (natural protein)
chain: TMCYSHTTTSRAILTNCGENSCYRKSRRHPPKMVLGRGCGCPPGDDNLEVKCCTSPDKCNY

What was measured:
[1] = biological target: Torpedo californica acetylcholinesterase (Torpedo californica) (UniProt P04058); experiment: kinetics of approach to equilibrium by enzyme activity
[2] = biological target: Torpedo californica acetylcholinesterase (Torpedo californica) (UniProt P04058); experiment: titration of enzyme activity
[3] = biological target: T1, Torpedo californica acetylcholinesterase (Torpedo californica, UniProt P04058 22-564); experiment: kinetics of approach to equilibrium by enzyme activity
[4] = biological target: T1, Torpedo californica acetylcholinesterase; experiment: titration of enzyme activity

Molecule	Kd [1] [nM]	koff [1] [s⁻¹]	kon [1] [M⁻¹ s⁻¹]	Kd [2] [nM]	Kd [3] [nM]	koff [3] [s⁻¹]	kon [3] [M⁻¹ s⁻¹]	Kd [4] [nM]
fasciculin double mutant T8V/T9N (natural protein)	0.6	0.0505	8.5e+07	0.64	–	–	–	–
fasciculin mutant H29R (natural protein)	0.03	0.0127	3.9e+08	0.052	–	–	–	–
fasciculin mutant K32R (natural protein)	2.6	0.09	–	2.3	–	–	–	–
fasciculin mutant R11K (natural protein)	0.63	0.0293	4.7e+07	0.53	–	–	–	–
fasciculin mutant T8V (natural protein)	–	–	–	0.125	–	–	–	–
fasciculin mutant T9N (natural protein)	–	–	–	2.8	–	–	–	–
B1	–	–	–	–	0.37	0.025	6.8e+07	0.31
